Usually Kd stands for the equilibrium constant for the complex coming apart. The low end stands for higher affinity, the high end for lower affinity.

The series addresses anti-BCR-ABL three-finger peptide 1A-2A-3B (synthetic). Put plainly: phage ELISA after capture on streptavidin beads; +/-0.4e-7 M; Zn, PBS, 20 C. As to conditions: source form inferred; label: 5'-biotin. (In general: An ELISA detects its analyte on a solid surface through an enzyme-linked reagent.)

Sequence of anti-BCR-ABL three-finger peptide 1A-2A-3B (synthetic) (chain, as listed by the source): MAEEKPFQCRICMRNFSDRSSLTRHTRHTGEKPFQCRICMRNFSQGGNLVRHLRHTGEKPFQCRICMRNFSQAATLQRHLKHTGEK

B1: p190 BCR-ABL cDNA fusion site oligo (dsDNA)
DNA 1: GAGACGCAGAAGCCCTTC
DNA 2: GAAGGGCTTCTGCGTCTC
On to B1, for which binding was characterised by a dissociation constant (Kd) of 620 nM.

The values above are taken from USRE42211, “Relating to binding proteins for recognition of DNA” (Gendaq, Limited).
